# T1: Cathepsin G (UniProt P08311 21-244)
# T1 sequence (looked up): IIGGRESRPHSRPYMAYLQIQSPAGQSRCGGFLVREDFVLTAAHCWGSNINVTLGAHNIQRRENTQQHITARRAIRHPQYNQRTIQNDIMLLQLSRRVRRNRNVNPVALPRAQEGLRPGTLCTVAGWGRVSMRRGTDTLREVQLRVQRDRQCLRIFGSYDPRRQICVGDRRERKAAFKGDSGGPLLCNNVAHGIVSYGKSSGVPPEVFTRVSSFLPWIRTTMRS
# B1: Variant A2M, bait region SEQ ID NO 143 (other)
# chain: SVSGKPQYMVLVPSLLHTETTEKGCVLLSYLNETVTVSASLESVRGNRSLFTDLEAENDVLHCVAFAVPKSSSNEEVMFLTVQVKGPTQEFKKRTTVMVKNEDSLVFVQTDKSIYKPGQTVKFRVVSMDENFHPLNELIPLVYIQDPKGNRIAQWQSFQLEGGLKQFSFPLSSEPFQGSYKVVVQKKSGGRTEHPFTVEEFVLPKFEVQVTVPKIITILEEEMNVSVCGLYTYGKPVPGHVTVSICRKYSDASDCHGEDSQAFCEKFSGQLNSHGCFYQQVKTKVFQLKRKEYEMKLHTEAQIQEEGTVVELTGRQSSEITRTITKLSFVKVDSHFRQGIPFFGQVRLVDGKGVPIPNKVIFIRGNEANYYSNATTDEHGLVQFSINTTNVMGTSLTVRVNYKDRSPCYGYQWVSEEHEEAHHTAYLVFSPSKSFVHLEPMSHELPCGHTQTVQAHYILNGGTLLGLKKLSFYYLIMAKGGIVRTGTHGLLVKQEDMKGHFSISIPVKSDIAPVARLLIYAVLPTGDVIGDSAKYDVENCLANKVDLSFSPSQSLPASHAHLRVTAAPQSVCALRAVDQSVLLMKPDAELSASSVYNLLPEKDLTGFPGPLNDQDDEDCINRHNVYINGITYTPVSSTNEKDMYSFLEDMGLKAFTNSKIRKPKMCPQLEQYEMHGPIPENFFGVSEDLVVQIEGEGEGEGEAIPMSIPTEPHTKLRKYFPETWIWDLVVVNSAGVAEVGVTVPDTITEWKAGAFCLSEDAGLGISSTASLRAFQPFFVELTMPYSVIRGEAFTLKATVLNYLPKCIRVSVQLEASPAFLAVPVEKEQAPHCICANGRQTVSWAVTPKSLGNVNFTVSAEALESQELCGTEVPSVPEHGRKDTVIKPLLVEPEGLEKETTFNSLLCPSGGEVSEELSLKLPPNVVEESARASVSVLGDILGSAMQNTQNLLQMPYGCGEQNMVLFAPNIYVLDYLNETQQLTPEIKSKAIGYLNTGYQRQLNYKHYDGSYSTFGERYGRNQGNTWLTAFVLKTFAQARAYIFIDEAHITQALIWLSQRQKDNGCFRSSGSLLNNAIKGGVEDEVTLSAYITIALLEIPLTVTHPVVRNALFCLESAWKTAQEGDHGSHVYTKALLAYAFALAGNQDKRKEVLKSLNEEAVKKDNSVHWERPQKPKAPVGHFYEPQAPSAEVEMTSYVLLAYLTAQPAPTSEDLTSATNIVKWITKQQNAQGGFSSTQDTVVALHALSKYGAATFTRTGKAAQVTIQSSGTFSSKFQVDNNNRLLLQQVSLPELPGEYSMKVTGEGCVYLQTSLKYNILPEKEEFPFALGVQTLPQTCDEPKAHTSFQISLSVSYTGSRSASNMAIVDVKMVSGFIPLKPTVKMLERSNHVSRTEVSSNHVLIYLDKVSNQTLSLFFTVLQDVPVRDLKPAIVKVYDYYETDEFAIAEYNAPCSKDLGNADYKDDDDKGASHHHHHH
# B2: Variant A2M, bait region SEQ ID NO 137 (other)
# chain: SVSGKPQYMVLVPSLLHTETTEKGCVLLSYLNETVTVSASLESVRGNRSLFTDLEAENDVLHCVAFAVPKSSSNEEVMFLTVQVKGPTQEFKKRTTVMVKNEDSLVFVQTDKSIYKPGQTVKFRVVSMDENFHPLNELIPLVYIQDPKGNRIAQWQSFQLEGGLKQFSFPLSSEPFQGSYKVVVQKKSGGRTEHPFTVEEFVLPKFEVQVTVPKIITILEEEMNVSVCGLYTYGKPVPGHVTVSICRKYSDASDCHGEDSQAFCEKFSGQLNSHGCFYQQVKTKVFQLKRKEYEMKLHTEAQIQEEGTVVELTGRQSSEITRTITKLSFVKVDSHFRQGIPFFGQVRLVDGKGVPIPNKVIFIRGNEANYYSNATTDEHGLVQFSINTTNVMGTSLTVRVNYKDRSPCYGYQWVSEEHEEAHHTAYLVFSPSKSFVHLEPMSHELPCGHTQTVQAHYILNGGTLLGLKKLSFYYLIMAKGGIVRTGTHGLLVKQEDMKGHFSISIPVKSDIAPVARLLIYAVLPTGDVIGDSAKYDVENCLANKVDLSFSPSQSLPASHAHLRVTAAPQSVCALRAVDQSVLLMKPDAELSASSVYNLLPEKDLTGFPGPLNDQDDEDCINRHNVYINGITYTPVSSTNEKDMYSFLEDMGLKAFTNSKIRKPKMCPQLEQYEMHGPSEDLVVQIKEEEGLGSIPENFFGVSELEGRGSVEEPHTKLRKYFPETWIWDLVVVNSAGVAEVGVTVPDTITEWKAGAFCLSEDAGLGISSTASLRAFQPFFVELTMPYSVIRGEAFTLKATVLNYLPKCIRVSVQLEASPAFLAVPVEKEQAPHCICANGRQTVSWAVTPKSLGNVNFTVSAEALESQELCGTEVPSVPEHGRKDTVIKPLLVEPEGLEKETTFNSLLCPSGGEVSEELSLKLPPNVVEESARASVSVLGDILGSAMQNTQNLLQMPYGCGEQNMVLFAPNIYVLDYLNETQQLTPEIKSKAIGYLNTGYQRQLNYKHYDGSYSTFGERYGRNQGNTWLTAFVLKTFAQARAYIFIDEAHITQALIWLSQRQKDNGCFRSSGSLLNNAIKGGVEDEVTLSAYITIALLEIPLTVTHPVVRNALFCLESAWKTAQEGDHGSHVYTKALLAYAFALAGNQDKRKEVLKSLNEEAVKKDNSVHWERPQKPKAPVGHFYEPQAPSAEVEMTSYVLLAYLTAQPAPTSEDLTSATNIVKWITKQQNAQGGFSSTQDTVVALHALSKYGAATFTRTGKAAQVTIQSSGTFSSKFQVDNNNRLLLQQVSLPELPGEYSMKVTGEGCVYLQTSLKYNILPEKEEFPFALGVQTLPQTCDEPKAHTSFQISLSVSYTGSRSASNMAIVDVKMVSGFIPLKPTVKMLERSNHVSRTEVSSNHVLIYLDKVSNQTLSLFFTVLQDVPVRDLKPAIVKVYDYYETDEFAIAEYNAPCSKDLGNADYKDDDDKGASHHHHHH
# B3: Variant A2M, bait region SEQ ID NO 141 (other)
# chain: SVSGKPQYMVLVPSLLHTETTEKGCVLLSYLNETVTVSASLESVRGNRSLFTDLEAENDVLHCVAFAVPKSSSNEEVMFLTVQVKGPTQEFKKRTTVMVKNEDSLVFVQTDKSIYKPGQTVKFRVVSMDENFHPLNELIPLVYIQDPKGNRIAQWQSFQLEGGLKQFSFPLSSEPFQGSYKVVVQKKSGGRTEHPFTVEEFVLPKFEVQVTVPKIITILEEEMNVSVCGLYTYGKPVPGHVTVSICRKYSDASDCHGEDSQAFCEKFSGQLNSHGCFYQQVKTKVFQLKRKEYEMKLHTEAQIQEEGTVVELTGRQSSEITRTITKLSFVKVDSHFRQGIPFFGQVRLVDGKGVPIPNKVIFIRGNEANYYSNATTDEHGLVQFSINTTNVMGTSLTVRVNYKDRSPCYGYQWVSEEHEEAHHTAYLVFSPSKSFVHLEPMSHELPCGHTQTVQAHYILNGGTLLGLKKLSFYYLIMAKGGIVRTGTHGLLVKQEDMKGHFSISIPVKSDIAPVARLLIYAVLPTGDVIGDSAKYDVENCLANKVDLSFSPSQSLPASHAHLRVTAAPQSVCALRAVDQSVLLMKPDAELSASSVYNLLPEKDLTGFPGPLNDQDDEDCINRHNVYINGITYTPVSSTNEKDMYSFLEDMGLKAFTNSKIRKPKMCPQLEQYEMHGPEAIPMSIPTSELEGRGSIPENFFGVEGEGEGEGEPHTKLRKYFPETWIWDLVVVNSAGVAEVGVTVPDTITEWKAGAFCLSEDAGLGISSTASLRAFQPFFVELTMPYSVIRGEAFTLKATVLNYLPKCIRVSVQLEASPAFLAVPVEKEQAPHCICANGRQTVSWAVTPKSLGNVNFTVSAEALESQELCGTEVPSVPEHGRKDTVIKPLLVEPEGLEKETTFNSLLCPSGGEVSEELSLKLPPNVVEESARASVSVLGDILGSAMQNTQNLLQMPYGCGEQNMVLFAPNIYVLDYLNETQQLTPEIKSKAIGYLNTGYQRQLNYKHYDGSYSTFGERYGRNQGNTWLTAFVLKTFAQARAYIFIDEAHITQALIWLSQRQKDNGCFRSSGSLLNNAIKGGVEDEVTLSAYITIALLEIPLTVTHPVVRNALFCLESAWKTAQEGDHGSHVYTKALLAYAFALAGNQDKRKEVLKSLNEEAVKKDNSVHWERPQKPKAPVGHFYEPQAPSAEVEMTSYVLLAYLTAQPAPTSEDLTSATNIVKWITKQQNAQGGFSSTQDTVVALHALSKYGAATFTRTGKAAQVTIQSSGTFSSKFQVDNNNRLLLQQVSLPELPGEYSMKVTGEGCVYLQTSLKYNILPEKEEFPFALGVQTLPQTCDEPKAHTSFQISLSVSYTGSRSASNMAIVDVKMVSGFIPLKPTVKMLERSNHVSRTEVSSNHVLIYLDKVSNQTLSLFFTVLQDVPVRDLKPAIVKVYDYYETDEFAIAEYNAPCSKDLGNADYKDDDDKGASHHHHHH
# Target: Elastase
# Experiment: cell-based or functional assay
row,Binder,Protease Inhibition (% of WT)
1,B1,250 % of WT
2,B2,100 % of WT
3,B3,75 % of WT

# Target: T1, Cathepsin G
# Experiment: cell-based or functional assay
row,Binder,Protease Inhibition (% of WT)
1,B1,350 % of WT
2,B2,450 % of WT
3,B3,100 % of WT
